From paper PMC4705956

Target: Asp93 (UniProt position 93, WARYADWLFTT)
Assay: UV-vis
Details: 298 K; 100 mM NaCl (Fig. 7 caption); the Methods state 4 M NaCl for UV-visible spectroscopy; Not stated for the titration; the Methods give 50 mM Tris-HCl for UV-visible samples; Folded, retinal-bound, detergent-solubilised. Light or dark adaptation is not stated.

Substance | pKa
Bacteriorhodopsin (HwBR) (Haloquadratum walsbyi) | 1.97
Bacteriorhodopsin (HwBR) R82E mutant (Haloquadratum walsbyi; R82E) | 2.24
